Among the data in publication PMC7857403 are stoichiometry N (minibinders per spike trimer) values, retold here.

In the assay the target is SARS-CoV-2 spike ectodomain trimer (SARS-CoV-2) (UniProt P0DTC2). In words: cryo-EM structure.

LCB1 (designed binder) returned a stoichiometry N (minibinders per spike trimer) of 3.
For LCB3 (designed binder) the value was 3.
